Test [1] addresses T1, mouse FcγRIII extracellular domain, C-terminally His-tagged (mouse, UniProt P08508 31-215).
T1 construct: the whole entry is named; also called mFcγRIII; mFcgRIII
T1 chain: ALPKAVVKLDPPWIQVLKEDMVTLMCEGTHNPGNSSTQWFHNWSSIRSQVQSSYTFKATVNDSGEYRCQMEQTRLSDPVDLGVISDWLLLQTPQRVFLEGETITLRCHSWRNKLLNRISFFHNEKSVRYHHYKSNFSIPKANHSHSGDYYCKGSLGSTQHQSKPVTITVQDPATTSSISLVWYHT
Kind of test: SPR Biacore T200, KD ratio. On the procedure: (§1) Each altered antibody was analyzed for its interaction with each Fcγ receptor prepared above using Biacore T100 (GE Healthcare Japan Corp.), Biacore T200 (GE Healthcare Japan Corp.), Biacore A100, or Biacore 4000. The running buffer used was HBS-EP+ (GE Healthcare Japan Corp.). The assay temperature was set to 25° C. The sensor chips used were chips prepared by immobilizing Protein L (ACTIGEN or BioVision) onto Series S Sensor Chip CM5 (GE Healthcare Japan Corp.) or Series S Sensor Chip CM4 (GE Healthcare Japan Corp.) by the amine coupling method.
(§2) In order to calculate the KD value of each altered antibody for FcγR, kinetic analysis was conducted according to the following method: first, the antibody of interest was captured onto any of these chips and allowed to interact with mFcγR diluted with a running buffer. For the obtained sensorgram, the assay results were globally fit into the 1:1 Langmuir binding model using Biacore Evaluation Software to calculate an association rate constant ka (L/mol/s) and a dissociation rate constant kd (1/s). From these values, the dissociation constant KD (mol/L) was calculated.
(In SPR one partner is held on a chip, and binding of the other changes the refractive index at the surface.)

Test [2] has as its target T2, mouse FcγRII extracellular domain, C-terminally His-tagged (mouse, UniProt P08101 30-210).
T2 construct: the whole entry is named; also called mFcγRII; mFcgRII
T2 sequence: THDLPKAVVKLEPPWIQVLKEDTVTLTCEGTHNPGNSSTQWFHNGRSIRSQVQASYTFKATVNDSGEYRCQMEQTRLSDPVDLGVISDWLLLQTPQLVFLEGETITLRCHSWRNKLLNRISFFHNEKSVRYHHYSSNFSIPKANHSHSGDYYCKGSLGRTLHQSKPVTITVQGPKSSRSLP
The experiment in a line: SPR Biacore T200, KD ratio. On the procedure:
as §1, §2

Data on eight molecules can be found in patent US20150203577A1 (Chugai, published 2015).

B1: H237-MB628/MRAL-k0 (antibody, mouse IgG1, kappa)
heavy: QVQLQESGPGLVKPSETLSLTCAVSGHSISHDHAWSWVRQPPGEGLEWIGFISYSGITNYNPSLQGRVTISRDNSKNTLYLQMNSLRAEDTAVYYCARSLARTTAMDYWGEGTLVTVSSAKTTPPSVYPLAPGSAAQTNSMVTLGCLVKGYFPEPVTVTWNSGSLSSGVHTFPAVLQSDLYTLSSSVTVPSSTWPSETVTCNVAHPASSTKVDKKIVPRDCGCKPCICEPAEVELVFIFPPKPKDVLTITLTPKVTCVVVDISKDDPEVQFSWFVDDVEVHTAQTQPREEQFNSTFRSVSELPIMHQDWLNGKEFKCRVNSAAFPAPIEKTISKTKGRPKAPQVYTIPPPKEQMAKDKVSLTCMITDFFPEDITVEWQWNGQPAENYKNTQPIMDTDGSYFVYSKLNVQKSNWEAGNTFTCSVLHEGLHNHHTEKSLSHSPGK
light: not shown
notes: copies: 2 + 2
Turning to B1, the “relative mFcγRIII-binding activity (mIgG1 = 1)” value in test [1] was 0.06 fold. In addition, in test [2], the “relative mFcγRII-binding activity (mIgG1 = 1)” value was determined as 2.2 fold.

B2: H237-MB633/MRAL-k0 (antibody, mouse IgG1, kappa)
heavy: QVQLQESGPGLVKPSETLSLTCAVSGHSISHDHAWSWVRQPPGEGLEWIGFISYSGITNYNPSLQGRVTISRDNSKNTLYLQMNSLRAEDTAVYYCARSLARTTAMDYWGEGTLVTVSSAKTTPPSVYPLAPGSAAQTNSMVTLGCLVKGYFPEPVTVTWNSGSLSSGVHTFPAVLQSDLYTLSSSVTVPSSTWPSETVTCNVAHPASSTKVDKKIVPRDCGCKPCICEDYEVENVFIFPPKPKDVLTITLTPKVTCVVVDISKDDPEVQFSWFVDDVEVHTAQTQPREEQFNSTFRSVSELPIMHQDWLNGKEFKCRVNSAAFPAPIEKTISKTKGRPKAPQVYTIPPPKEQMAKDKVSLTCMITDFFPEDITVEWQWNGQPAENYKNTQPIMDTDGSYFVYSKLNVQKSNWEAGNTFTCSVLHEGLHNHHTEKSLSHSPGK
light: not shown
notes: copies: 2 + 2
In the case of B2, the “relative mFcγRIII-binding activity (mIgG1 = 1)” value in test [1] amounted to 0.17 fold. In test [2], the “relative mFcγRII-binding activity (mIgG1 = 1)” value was determined as 2.77 fold.

B3: H237-MB635/MRAL-k0 (antibody, mouse IgG1, kappa)
heavy: QVQLQESGPGLVKPSETLSLTCAVSGHSISHDHAWSWVRQPPGEGLEWIGFISYSGITNYNPSLQGRVTISRDNSKNTLYLQMNSLRAEDTAVYYCARSLARTTAMDYWGEGTLVTVSSAKTTPPSVYPLAPGSAAQTNSMVTLGCLVKGYFPEPVTVTWNSGSLSSGVHTFPAVLQSDLYTLSSSVTVPSSTWPSETVTCNVAHPASSTKVDKKIVPRDCGCKPCICETYEVENVFIFPPKPKDVLTITLTPKVTCVVVDISKDDPEVQFSWFVDDVEVHTAQTQPREEQFNSTFRSVSELPIMHQDWLNGKEFKCRVNSAAFPAPIEKTISKTKGRPKAPQVYTIPPPKEQMAKDKVSLTCMITDFFPEDITVEWQWNGQPAENYKNTQPIMDTDGSYFVYSKLNVQKSNWEAGNTFTCSVLHEGLHNHHTEKSLSHSPGK
light: not shown
notes: copies: 2 + 2
B3: the “relative mFcγRIII-binding activity (mIgG1 = 1)” value in test [1] came to 0.29 fold. The “relative mFcγRII-binding activity (mIgG1 = 1)” value in test [2] worked out at 5.06 fold.

B4: H237-MB631/MRAL-k0 (antibody, mouse IgG1, kappa)
heavy: QVQLQESGPGLVKPSETLSLTCAVSGHSISHDHAWSWVRQPPGEGLEWIGFISYSGITNYNPSLQGRVTISRDNSKNTLYLQMNSLRAEDTAVYYCARSLARTTAMDYWGEGTLVTVSSAKTTPPSVYPLAPGSAAQTNSMVTLGCLVKGYFPEPVTVTWNSGSLSSGVHTFPAVLQSDLYTLSSSVTVPSSTWPSETVTCNVAHPASSTKVDKKIVPRDCGCKPCICQPNEVELVFIFPPKPKDVLTITLTPKVTCVVVDISKDDPEVQFSWFVDDVEVHTAQTQPREEQFNSTFRSVSELPIMHQDWLNGKEFKCRVNSAAFPAPIEKTISKTKGRPKAPQVYTIPPPKEQMAKDKVSLTCMITDFFPEDITVEWQWNGQPAENYKNTQPIMDTDGSYFVYSKLNVQKSNWEAGNTFTCSVLHEGLHNHHTEKSLSHSPGK
light: not shown
notes: copies: 2 + 2
Take B4: in test [1], the “relative mFcγRIII-binding activity (mIgG1 = 1)” value turned out to be 0.28 fold. Moreover, the “relative mFcγRII-binding activity (mIgG1 = 1)” value in test [2] was determined as 4.29 fold.

B5: H237-MB629/MRAL-k0 (antibody, mouse IgG1, kappa)
heavy: QVQLQESGPGLVKPSETLSLTCAVSGHSISHDHAWSWVRQPPGEGLEWIGFISYSGITNYNPSLQGRVTISRDNSKNTLYLQMNSLRAEDTAVYYCARSLARTTAMDYWGEGTLVTVSSAKTTPPSVYPLAPGSAAQTNSMVTLGCLVKGYFPEPVTVTWNSGSLSSGVHTFPAVLQSDLYTLSSSVTVPSSTWPSETVTCNVAHPASSTKVDKKIVPRDCGCKPCICIPAEVELVFIFPPKPKDVLTITLTPKVTCVVVDISKDDPEVQFSWFVDDVEVHTAQTQPREEQFNSTFRSVSELPIMHQDWLNGKEFKCRVNSAAFPAPIEKTISKTKGRPKAPQVYTIPPPKEQMAKDKVSLTCMITDFFPEDITVEWQWNGQPAENYKNTQPIMDTDGSYFVYSKLNVQKSNWEAGNTFTCSVLHEGLHNHHTEKSLSHSPGK
light: not shown
notes: copies: 2 + 2
For the molecule B5, in test [1], the “relative mFcγRIII-binding activity (mIgG1 = 1)” value was 0.04 fold. Further, the “relative mFcγRII-binding activity (mIgG1 = 1)” value in test [2] is 0.38 fold.

B6: H237-MB630/MRAL-k0 (antibody, mouse IgG1, kappa)
heavy: QVQLQESGPGLVKPSETLSLTCAVSGHSISHDHAWSWVRQPPGEGLEWIGFISYSGITNYNPSLQGRVTISRDNSKNTLYLQMNSLRAEDTAVYYCARSLARTTAMDYWGEGTLVTVSSAKTTPPSVYPLAPGSAAQTNSMVTLGCLVKGYFPEPVTVTWNSGSLSSGVHTFPAVLQSDLYTLSSSVTVPSSTWPSETVTCNVAHPASSTKVDKKIVPRDCGCKPCICEPNEVELVFIFPPKPKDVLTITLTPKVTCVVVDISKDDPEVQFSWFVDDVEVHTAQTQPREEQFNSTFRSVSELPIMHQDWLNGKEFKCRVNSAAFPAPIEKTISKTKGRPKAPQVYTIPPPKEQMAKDKVSLTCMITDFFPEDITVEWQWNGQPAENYKNTQPIMDTDGSYFVYSKLNVQKSNWEAGNTFTCSVLHEGLHNHHTEKSLSHSPGK
light: not shown
notes: copies: 2 + 2
In the case of B6, the “relative mFcγRIII-binding activity (mIgG1 = 1)” value in test [1] worked out at 0.25 fold. Further, in test [2], the “relative mFcγRII-binding activity (mIgG1 = 1)” value turned out to be 14.3 fold.

B7: H237-MB632/MRAL-k0 (antibody, mouse IgG1, kappa)
heavy: QVQLQESGPGLVKPSETLSLTCAVSGHSISHDHAWSWVRQPPGEGLEWIGFISYSGITNYNPSLQGRVTISRDNSKNTLYLQMNSLRAEDTAVYYCARSLARTTAMDYWGEGTLVTVSSAKTTPPSVYPLAPGSAAQTNSMVTLGCLVKGYFPEPVTVTWNSGSLSSGVHTFPAVLQSDLYTLSSSVTVPSSTWPSETVTCNVAHPASSTKVDKKIVPRDCGCKPCICEAYEVENVFIFPPKPKDVLTITLTPKVTCVVVDISKDDPEVQFSWFVDDVEVHTAQTQPREEQFNSTFRSVSELPIMHQDWLNGKEFKCRVNSAAFPAPIEKTISKTKGRPKAPQVYTIPPPKEQMAKDKVSLTCMITDFFPEDITVEWQWNGQPAENYKNTQPIMDTDGSYFVYSKLNVQKSNWEAGNTFTCSVLHEGLHNHHTEKSLSHSPGK
light: not shown
notes: copies: 2 + 2
Regarding B7, the “relative mFcγRIII-binding activity (mIgG1 = 1)” value in test [1] was 0.18 fold. Moreover, the “relative mFcγRII-binding activity (mIgG1 = 1)” value in test [2] is 3.64 fold.

B8: H237-MB634/MRAL-k0 (antibody, mouse IgG1, kappa)
heavy: QVQLQESGPGLVKPSETLSLTCAVSGHSISHDHAWSWVRQPPGEGLEWIGFISYSGITNYNPSLQGRVTISRDNSKNTLYLQMNSLRAEDTAVYYCARSLARTTAMDYWGEGTLVTVSSAKTTPPSVYPLAPGSAAQTNSMVTLGCLVKGYFPEPVTVTWNSGSLSSGVHTFPAVLQSDLYTLSSSVTVPSSTWPSETVTCNVAHPASSTKVDKKIVPRDCGCKPCICENYEVENVFIFPPKPKDVLTITLTPKVTCVVVDISKDDPEVQFSWFVDDVEVHTAQTQPREEQFNSTFRSVSELPIMHQDWLNGKEFKCRVNSAAFPAPIEKTISKTKGRPKAPQVYTIPPPKEQMAKDKVSLTCMITDFFPEDITVEWQWNGQPAENYKNTQPIMDTDGSYFVYSKLNVQKSNWEAGNTFTCSVLHEGLHNHHTEKSLSHSPGK
light: not shown
notes: copies: 2 + 2
As for B8, the “relative mFcγRIII-binding activity (mIgG1 = 1)” value in test [1] is 0.21 fold. Further, in test [2], the “relative mFcγRII-binding activity (mIgG1 = 1)” value was 2.52 fold.
